Numbering of substitutions follows the chain as printed. “And” between values parts separate entries of the source, which are not always exact repeats. Equal values may be shown once.
What was measured:
human CD3 [1] = biological target: T1, human CD3 (human, UniProt P07766 23-207; P09693 23-182; P04234 22-171; P20963 22-164); test: flow cytometry titration on human CD3+ T cells/Jurkat, anti-His detection
T1 construct: whole, on cells; also called hu CD3; CD3 on human T cells
Protocol: Cells were incubated with 100 μL of serial dilutions of CD33/CD3 2×2 T-cell engagers. After washing three times with FACS buffer the cells were incubated with 0.1 mL of […] mouse monoclonal anti-His antibody in the same buffer for 45 min on ice. After a second washing cycle, the cells were incubated with 0.1 mL of […] FITC-conjugated goat anti-mouse IgG antibodies under the same conditions as before. As a control, cells were incubated with the anti-His IgG followed by the FITC-conjugated goat anti-mouse IgG antibodies without anti-CD33 2×2 T-cell engagers. […] The fluorescence of 1×10⁴ living cells was measured using a Beckman-Coulter FC500 MPL flow cytometer using the MXP software (Beckman-Coulter, Krefeld, Germany) or a Millipore Guava EasyCyte flow cytometer using the Incyte software (Merck Millipore, Schwalbach, Germany). Mean fluorescence intensities of the cell samples were calculated using CXP software (Beckman-Coulter, Krefeld, Germany) or Incyte software (Merck Millipore, Schwalbach, Germany). After subtracting the fluorescence intensity values of the cells stained with the secondary and tertiary reagents alone the values were used for calculation of the KD values with the equation for one-site binding (hyperbola) of the GraphPad Prism (version 6.00 for Windows, GraphPad Software, La Jolla Calif. USA). […]

human CD33 [2] = biological target: T2, human CD33 (human, UniProt P20138 18-364); test: cell-based or functional assay
human CD33 [3] = biological target: T2, human CD33; test: cell-based or functional assay; remark: listed apart in the source
human CD3 [4] = biological target: T1, human CD3; test: cell-based or functional assay
human CD33 [5] = biological target: T2, human CD33; test: cell-based or functional assay; remark: listed apart in the source
human CD33 [6] = biological target: T2, human CD33; test: cell-based or functional assay; remark: listed apart in the source

T2 sequence (P20138 18-364): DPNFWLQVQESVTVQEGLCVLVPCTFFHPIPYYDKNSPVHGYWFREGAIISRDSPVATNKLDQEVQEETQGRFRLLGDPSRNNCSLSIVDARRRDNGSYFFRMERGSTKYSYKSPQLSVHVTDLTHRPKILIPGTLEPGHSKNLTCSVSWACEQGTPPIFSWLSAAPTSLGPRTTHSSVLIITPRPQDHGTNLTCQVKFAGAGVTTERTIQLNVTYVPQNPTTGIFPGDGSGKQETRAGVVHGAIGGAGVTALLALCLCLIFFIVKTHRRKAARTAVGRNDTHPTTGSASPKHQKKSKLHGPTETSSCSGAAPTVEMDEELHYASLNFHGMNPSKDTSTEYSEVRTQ
T1 sequence (P07766 23-207, chain 1 of 4): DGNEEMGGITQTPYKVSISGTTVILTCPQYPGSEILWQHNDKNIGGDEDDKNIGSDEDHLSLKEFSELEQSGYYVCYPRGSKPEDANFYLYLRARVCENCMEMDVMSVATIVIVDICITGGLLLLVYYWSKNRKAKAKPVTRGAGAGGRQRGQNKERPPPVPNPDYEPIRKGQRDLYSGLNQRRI
T1 sequence (P09693 23-182, chain 2 of 4): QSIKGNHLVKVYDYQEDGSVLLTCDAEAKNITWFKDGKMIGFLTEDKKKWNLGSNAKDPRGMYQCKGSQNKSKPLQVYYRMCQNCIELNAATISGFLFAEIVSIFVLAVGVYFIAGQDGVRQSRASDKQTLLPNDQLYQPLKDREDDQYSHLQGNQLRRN
T1 sequence (P04234 22-171, chain 3 of 4): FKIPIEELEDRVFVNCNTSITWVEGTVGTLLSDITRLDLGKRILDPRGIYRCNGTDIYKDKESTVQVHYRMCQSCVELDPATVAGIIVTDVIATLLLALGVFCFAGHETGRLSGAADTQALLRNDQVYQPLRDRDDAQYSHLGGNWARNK
T1 sequence (P20963 22-164, chain 4 of 4): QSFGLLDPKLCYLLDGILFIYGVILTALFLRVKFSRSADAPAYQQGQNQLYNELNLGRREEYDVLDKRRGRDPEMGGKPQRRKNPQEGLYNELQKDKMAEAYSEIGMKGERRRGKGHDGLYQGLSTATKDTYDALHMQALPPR

B1: CD33/CD3 2×2 T-cell engager 18 (bispecific antibody)
chain: EVQLVESGGGLVQPGGSLRLSCAASGFTFSTYAMNWVRQAPGKGLEWVGRIRSKYNNYATYYADSVKDRFTISRDDSKNSLYLQMNSLKTEDTAVYYCARHGNFGNSYVSYFAYWGQGTLVTVSSGGSGGSQSVLTQPPSVSGAPGQRVTISCTGSSSNIGAGYDVHWYQQLPGTAPKLLIYGNSNRPSGVPDRFSGSKSGTSASLAITGLQAEDEADYYCQSYDSSLSDVVFGGGTKLTVLGGSGQVQLVQSGAEVKKPGESLKISCKGSGYSFTSYWIGWVRQMPGKGLEWMGIIYPGDSDTRYSPSFQGQVTISADKSISTAYLQWSSLKASDTAMYYCARHKRGSDAFDIWGQGTTVTVSSGGSGGSDIQMTQSPSSLSASVGDRVTITCRSSTGAVTTSNYANWVQQKPGKAPKALIGGTNKRAPGVPSRFSGSLIGDKATLTISSLQPEDFATYYCALWYSNLWVFGQGTKVEIKAAAGSHHHHHH
notes: Homodimer; His-tagged form
Human CD3 [1]
  Kd: 11.9 nM

B2: CD33/CD3 2×2 T-cell engager 12 (bispecific antibody)
chain: DIQMTQSPSSLSASVGDRVTITCRSSTGAVTTSNYANWVQQKPGKAPKALIGGTNKRAPGVPSRFSGSLIGDKATLTISSLQPEDFATYYCALWYSNLWVFGQGTKVEIKGGSGGSQVQLVQSGAEVKKPGASVKVSCKASGYTFTSYDINWVRQAPGQGLEWMGWMNPNSGNTGFAQKFQGRVTMTRDTSTSTVYMELSSLRSEDTAVYYCARDRAVTDYYYGMDVWGQGTLVTVSSGGSGQSVLTQPPSASGTPGQRVTISCSGSRSNIGSNTVNWYQQLPGTAPKLLIYGNNQRPSGVPDRFSGSKSGTSASLAISGLQSEDEADYYCATWDDSLIGWVFGGGTKLTVLGGSGGSEVQLVESGGGLVQPGGSLRLSCAASGFTFSTYAMNWVRQAPGKGLEWVGRIRSKYNNYATYYADSVKDRFTISRDDSKNSLYLQMNSLKTEDTAVYYCARHGNFGNSYVSYFAYWGQGTLVTVSSAAAGSHHHHHH
Human CD33 [2]
  IC50 lysis of KG-1 cells with human T cells, E:T 5:1, 24 h: ~0.01 pM
Human CD33 [3]
  EC50 cytotoxicity on HL-60, E:T 5:1, 20-24 h: 1.3 pM and 137 pg/mL
  EC50 cytotoxicity on KG-1, E:T 5:1, 20-24 h: 1.2 pM and 126 pg/mL
  EC50 cytotoxicity on U-937, E:T 5:1, 20-24 h: 0.8 pM and 84 pg/mL
  EC50 cytotoxicity, mean of HL-60, U-937, KG-1: 1.1 pM and 116 pg/mL
Human CD3 [4]
  CD25 Induction EC50 (PBMC, 24 h): 6 pM
  CD69 Induction EC50 (PBMC, 24 h): 3 pM

B3: CD33/CD3 2×2 T-cell engager 16 (bispecific antibody)
chain: B2 chain with V218N, Y222S, Y223L
Human CD33 [2]
  IC50 lysis of KG-1 cells (separate experiment): 5 pM
  IC50 lysis of KG-1 cells with human T cells, E:T 5:1, 24 h: ~0.5 pM
Human CD33 [3]
  EC50 cytotoxicity on HL-60, E:T 5:1, 20-24 h: 1.5 pM and 158 pg/mL
  EC50 cytotoxicity on KG-1, E:T 5:1, 20-24 h: 1.8 pM and 189 pg/mL
  EC50 cytotoxicity on U-937, E:T 5:1, 20-24 h: 1.9 pM and 200 pg/mL
  EC50 cytotoxicity, mean of HL-60, U-937, KG-1: 1.7 pM and 179 pg/mL
Human CD3 [4]
  CD25 Induction EC50 (PBMC, 24 h): 1 pM
  CD69 Induction EC50 (PBMC, 24 h): 2 pM
Human CD33 [5]
  EC50 calcein-release lysis of HL-60, E:T 25:1, 30 min: 4.8 pM
  EC50 calcein-release lysis of HL-60, E:T 25:1, 60 min: 2.5 pM
  EC50 calcein-release lysis of HL-60, E:T 25:1, 120 min: 1.6 pM
  EC50 calcein-release lysis of HL-60, E:T 25:1, 180 min: 1.6 pM
  EC50 calcein-release lysis of HL-60, E:T 25:1, 240 min: 1.5 pM
  EC50 calcein-release lysis of HL-60, E:T 25:1, 300 min: 1.6 pM

B4: CD33/CD3 2×2 T-cell engager 14 (bispecific antibody)
chain: B2 chain with V218N, Y221F, Y222S
Human CD33 [6]
  EC50 on HL-60 (cytotoxicity): 11.6 pM
Human CD33 [3]
  EC50 cytotoxicity on HL-60, E:T 5:1, 20-24 h: 1.6 pM and 168 pg/mL
  EC50 cytotoxicity on KG-1, E:T 5:1, 20-24 h: 2.6 pM and 273 pg/mL
  EC50 cytotoxicity on U-937, E:T 5:1, 20-24 h: 3.6 pM and 378 pg/mL
  EC50 cytotoxicity, mean of HL-60, U-937, KG-1: 2.6 pM and 273 pg/mL
Human CD3 [4]
  CD25 Induction EC50 (PBMC, 24 h): 10 pM
  CD69 Induction EC50 (PBMC, 24 h): 7 pM

B5: CD33/CD3 2×2 T-cell engager 19 (bispecific antibody)
chain: DIQMTQSPSSLSASVGDRVTITCRSSTGAVTTSNYANWVQQKPGKAPKALIGGTNKRAPGVPSRFSGSLIGDKATLTISSLQPEDFATYYCALWYSNLWVFGQGTKVEIKGGSGGSQVQLVQSGAEVKKPGASVKVSCKASGYTFTSYYMHWVRQAPGQGLEWMGIINPSGGSTSYAQKFQGRVTMTRDTSTSTVYMELSSLRSEDTAVYYCARDVVPAAIDYYGMDVWGQGTTVTVSSGGSGQSVLTQPPSASGTPGQRVTISCSGSSSNIGSNTVNWYQQLPGTAPKLLIYSDNQRPSGVPDRFSGSKSGSSASLAISGLQSDDEADYYCATWDDSLNGAVFGGGTKLTVLGGSGGSEVQLVESGGGLVQPGGSLRLSCAASGFTFSTYAMNWVRQAPGKGLEWVGRIRSKYNNYATYYADSVKDRFTISRDDSKNSLYLQMNSLKTEDTAVYYCARHGNFGNSYVSYFAYWGQGTLVTVSSAAAGSHHHHHH
Human CD33 [2]
  IC50 lysis of KG-1 cells with human T cells, E:T 5:1, 24 h: ~5 pM
Human CD3 [4]
  CD25 Induction EC50 (PBMC, 24 h): 9 pM
  CD69 Induction EC50 (PBMC, 24 h): 5 pM

— patent publication US20210324076A1 (AMPHIVENA THERAPEUTICS, published 2021)
